Measurements taken from US20220177549A1 (INVETX, published 2022).

Target: T1, equine FcRn complex (equine, UniProt F6XZ61 19-292; P30441 21-118)
T1 construct: Heterodimer of p51 extracellular domain (Avi-tag, 8x His) and Flag-tagged beta-2-microglobulin from HEK293 cells; also called horse FcRn
Test: SPR (Biacore 8K+), pH 5.9, 25 C; FcRn captured by anti-His, IgG as analyte; 1:1 kinetic model

B1: Equine G426Y (antibody)
chain: APELLGGPSVFIFPPNPKDTLMITRTPEVTCVVVDVSQENPDVKFNWYMDGVEVRTATTRPKEEQFNSTYRVVSVLRIQHQDWLSGKEFKCKVNNQALPQPIERTITKTKGRSQEPQVYVLAPHPDELSKSKVSVTCLVKDFYPPEINIEWQSNGQPELETKYSTTQAQQDSDGSYFLYSKLSVDRNRWQQGTTFTCYVMHEALHNHYTQKNVSKNPGK
With B1 the “Fold increase over wild-type KD” value was 2.8 fold and the Kd was 52.3 nM.
